The target in assay [1] is T1, acyl-ACP thioesterase ChFatB2 from Cuphea hookeriana, excluding the transit peptide (residues 129-395) (Cuphea hookeriana, UniProt Q39514 129-395).
T1 sequence (looked up): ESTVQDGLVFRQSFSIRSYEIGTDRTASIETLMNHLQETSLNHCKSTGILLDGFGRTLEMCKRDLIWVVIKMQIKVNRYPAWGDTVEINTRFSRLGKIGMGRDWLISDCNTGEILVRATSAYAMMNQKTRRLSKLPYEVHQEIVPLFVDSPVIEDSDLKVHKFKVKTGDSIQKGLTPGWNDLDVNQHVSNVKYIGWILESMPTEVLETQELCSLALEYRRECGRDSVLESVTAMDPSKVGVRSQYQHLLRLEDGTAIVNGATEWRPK
The experiment in a line: cell-based or functional assay.

The target in assay [2] is T1, acyl-ACP thioesterase ChFatB2 from …. Briefly: cell-based or functional assay. The source holds these as a separate data set.
The target is the same in assay [3]. The experiment in a line: liquid crystal assay; ChFatB2 (5 μg/mL, 1.5 µL) dried on DMOAP-coated glass slides; ACP solutions (10 μg/mL, 1.5 µL) deposited on the immobilized ChFatB2, 30 min, washed with deionized water; grayscale of polarised-light images of the liquid crystal cell (Image J); semi-quantitative; holo-ACP defined as 100% binding. The note with it: both partners purified.

B1: C8-acyl acyl carrier protein from Escherichia coli (natural protein)
chain: STIEERVKKIIGEQLGVKQEEVTNNASFVEDLGADSLDTVELVMALEEEFDTEIPDEEAEKITTVQAAIDYINGHQA
modifications: C8 (8:0) acyl chain on the phosphopantetheine of holo-ACP (residue not given)
notes: also called C8-EcACP; C8-ACP
Regarding B1, in assay [1], the “Km of ChFatB2 thioesterase activity (DTNB assay, Michaelis-Menten fit)” value (“Km of ChFatB2 thioesterase activity” below) came to 350 µM. Moreover, the “relative activity of ChFatB2 (thioesterase, DTNB assay)” value (“relative activity of ChFatB2” for short) in assay [2] came to 0.07 µmol/min/mg. Further, the “grayscale of the liquid crystal image” value in assay [3] came to 106 ± 11.8 grayscale.

B2: C10-acyl acyl carrier protein from Escherichia coli (natural protein)
chain: B1 chain
modifications: C10 (10:0) acyl chain on the phosphopantetheine of holo-ACP (residue not given)
notes: also called C10-EcACP
Take B2: in assay [1], the “Km of ChFatB2 thioesterase activity” value was found to be 186 µM. In assay [2], the “relative activity of ChFatB2” value came to 0.17 µmol/min/mg. The “grayscale of the liquid crystal image” value in assay [3] turned out to be 138 ± 5.3 grayscale.

B3: holo acyl carrier protein from Escherichia coli (natural protein)
chain: B1 chain
modifications: holo form (phosphopantetheine; residue not given)
notes: also called holo-EcACP; EC-holo-ACP; source: E. coli BAP1 (chromosomal B. subtilis Sfp), purified (Ni-NTA, Superdex 200)
Regarding B3, in assay [3], the “grayscale of the liquid crystal image” value came out at 156 ± 3.2 grayscale.

B4: C8-acyl acyl carrier protein 2 from Cuphea lanceolata (residues 54-137) (natural protein, UniProt P52412 54-137, looked up)
chain: QAKPETVTKVCNIVKKQLALPDDSDVSGVSKFSALGADSLDTVEIVMGLEEEFGISVEEESAQSIQTVQDAADLIEKLMEKKGH
modifications: C8 (8:0) acyl chain on the phosphopantetheine of holo-ACP (residue not given)
notes: acyl carrier protein ClACP2, Cuphea lanceolata, UniProt P52412, residues 54-137, excluding the chloroplast transit peptide; also called C8-ClACP2
Turning to B4, the “Km of ChFatB2 thioesterase activity” value in assay [1] came out at 217 µM. For the same molecule, in assay [2], the “relative activity of ChFatB2” value is 0.51 µmol/min/mg. Besides, the “grayscale of the liquid crystal image” value in assay [3] came out at 139 ± 6 grayscale.

B5: C10-acyl acyl carrier protein 2 from Cuphea lanceolata (residues 54-137) (natural protein, UniProt P52412 54-137, looked up)
chain: B4 chain
modifications: C10 (10:0) acyl chain on the phosphopantetheine of holo-ACP (residue not given)
notes: acyl carrier protein ClACP2, Cuphea lanceolata, UniProt P52412, residues 54-137, excluding the chloroplast transit peptide; also called C10-ClACP2
As for B5, the “Km of ChFatB2 thioesterase activity” value in assay [1] turned out to be 263 µM. In addition, the “relative activity of ChFatB2” value in assay [2] came out at 0.33 µmol/min/mg. Further, the “grayscale of the liquid crystal image” value in assay [3] is 96.7 ± 11 grayscale.

B6: holo acyl carrier protein 2 from Cuphea lanceolata, excluding the chloroplast transit peptide (residues 54-137) (natural protein, UniProt P52412 54-137, looked up)
chain: B4 chain
modifications: holo form (phosphopantetheine; residue not given)
notes: acyl carrier protein ClACP2, Cuphea lanceolata, UniProt P52412, residues 54-137, excluding the chloroplast transit peptide; also called holo-ClACP2; ClACP2; source: E. coli BAP1 (chromosomal B. subtilis Sfp), purified (Ni-NTA, Superdex 200)
As to B6, the “grayscale of the liquid crystal image” value in assay [3] came to 145 ± 19.1 grayscale.
